Assay: yeast display, Sf9 membrane polyspecificity reagent, FACS + sequencing; frameworks hold sequencing errors
Procedure, shortened: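 Genes from sorted yeast were amplified by colony PCR, read by MiSeq 2 × 250 sequencing and filtered on CDR length. These cells carried a synthetic nanobody library in Saccharomyces cerevisiae BJ5465 and were sorted by FACS into low and high (top ~1%) gates on anti-HA and streptavidin fluorescence. Polyreactivity is labelled according to the gate of origin.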

Row | Sequence | polyreactivity (PSR sort gate)
1 | QVQLQESGGGLVQAGGSLRMSCAARGTIFWQWAMGWYCQAPGKERELVASISSGGTTYHADSVKGRFTISRDNAKNTVYLQMNSLKPEDTAVYYCNAPNWSVAYVYITQEMDYWGQGTQVTVSS | low polyreactivity
2 | QVQLVESGGGLVQAGGSLRLSCAASGRTFRRYAMGLYRQAPGKERELVASISTSGGSTYADSVKGRFTISRDNAKNTVYLQMNSLKPEDTAVYYCAVRSPRYVRNGDYWGQGTQVTVSS | high polyreactivity
3 | QVQLVESGGGLVQAGGSLRLNCAASGRISTYYVMGWYRQAPGKERELVAAINWSDGSTYYADSVKGRFTISRDNAKNTVYFQMNSLKPEDTAVYYCNVDAGVEGGTVDYWGQGTQVTVSS | low polyreactivity
4 | QVQLVESGGGLVQAGGSLRLSCAASGFSFWSNDMGWSRQAPGKEREFVAAITTSGGNTYYADSVKGRFTISRDNAKNTVYLQMQSLKPEDTAVYYCAAEEGSTDATGYDYWGEGTQVTVSS | low polyreactivity
5 | QVQLVESGGGLVQPRGSLSLSCAASGYIFDYYDMGWYRPAPGKERELVAAISSSGGTTYYADSVKGRFTISRDNGKNTVYLQMNSLKPEDTAVYYCAAVAVLPRSDYWGQGTQVTVSS | high polyreactivity
6 | QVQLVESGGGLVQAGGSLRLSCAASGRTFYPYAMGWYRQAPGKERELVAAITISVGSTYYADSVKGRFTISRDNAKNTVYLQMNSLNPEDTAVYYCAAANTPEYDYWGQGTQVTVSS | low polyreactivity
7 | QVQLVESGGGLVQAGGSLRLSCAASGRIFRPYTMGWYRQAPGKERELVAAITSGSSTNYADSVKGRFTISRDNAKNTVYLHMNSLKPEDTAVYYCAVKVRIFASYYPFYYWGQGSQVTVSS | high polyreactivity
8 | QVQLVESWRGLVQAGGSLRLSCAASGNTFVYNAMRWYRQAPGKERELVAGITKTGGRTYYADSVKGRFTISRDIAKNTVYLEMNSLKPEDTAVYYCAARPWNDGYYVGRFHMVYWGQGTQVTVSS | low polyreactivity
9 | QVQLVESGGGLVQAGGSLRLSCAASGRTFWSNDMGWYRQAPGKEREFVAVISRSGSTTYYADSVKGRFTISRDNAKNTVYLQMNSRKPEDTAVYYCAADRVRSYFSRYYSTPLDYYLGQGTQVTVSS | high polyreactivity
10 | QVQLVESGVCIVQAGGSLRLRCASSGSSLLNNAMGWYRQAPGKERELVAAITWSGGDTYYADSVKGRFTISRDNAKNTVYLQMNCLLQEDTAVYDCAADRYQWLTAYTDDLDHDYWGQGTQVTVSS | high polyreactivity
11 | QVQLVDSGGGLVQAGGSLRLSCAASGSTFSTYPMGWYRQAPGKERELVAAISRSGGTTYYADSVKGRFTISRDNAKNTVYLQMNSLKQEETAVYYCNAVTRYTQIMDYWGQGTQVTVSS | high polyreactivity
12 | QVQLVESGGGLVQAGGSLRLSCAASGFIFATYAMGWYRQAPGKERELVASINWSGGRTYYADSVKGRFTISRDNAKNTVYFQMNSLKPEDTEVYYCAARISTRYEYWGHGTQVTVSS | high polyreactivity
13 | QVQLVESGGGLVQAGGSLRLSCAASGITFIVNAMGWYRQAPGKERELVARITTSGGSTSYADSVKGRFTISRDNAKYTVYLQMYSLKPEDSAVYYCAADRGGYYSEYDYWGQGTQVTVSS | low polyreactivity
14 | QVQLVESGGGLVQAGGSLRLSCDASGRIFRENAMGWYRQAPGKERELVAAINRSGSRTYYADSVKGRFTISRDNAKNTVYLQMNSLKPEDTAVYYCATASSIRYDYWGQGTQVTVSS | high polyreactivity
15 | QVQLVESGGGLVQAGGSLRLSCAASGLTLAPNAMGWYRQSPGKERELVAAITRSGGDTYYADSVKGRFTISRDTAKNTVYLQMNSLKPEDTAVYYCAADYWFRYGTYTGLTSYYYWGQGTQVTVSS | high polyreactivity
16 | QVQLVESVGGLVQAGGSLRLSCAASGITFGRNTMGWYRQAPGKERELVAAISWNGDSTYYADSVKGRFTISRDNAKNTVYLQMNSLKPEDTAVYYCNADDVFLYQTDGLGDYWGQGTQVTVSS | low polyreactivity
17 | QVQLVDSRGCLVQAGGSLRLSFAASGSIFGYYSMVWYIQAPGKESELVAAISYSGSRTYYADSVKGRFTISRDNAKNTVYLQKNSLKPEDTAVYYCAVLRRDGFEYWGQGTQVTVSS | high polyreactivity
18 | QVQLVESGGGFVQSGGSLRLSCAASGITFRYYTMGWYRQPPRKERELDAVISWSGGSTYYADSVKGRFTISRDNAKNTVYLQRNSLKPEDTAVYYCAAVRRISRYDYWGQGTQVTVSS | high polyreactivity
19 | QVQLVESGGGLVQAGGSLRLSCAASGSIFRTNAIGWYRQAPGRERELVAAITGSGGSTYYADSVKGRFTISRDNAKNTVYLQMNSLKPEDTAVYYCAVVGYHRDFDYWGQGTQVTVSS | low polyreactivity
20 | QVQLVESGGGLVQAGGSLRLTCAASGSIFGPNTMGWYRQAPGKERELVAAIRCGGSTNYADSVKWRFTISRDNAKNTVYLQMNSLKPDDTAVYYCIATWNLFPGVLDRYVYWGQGTQVTVSS | low polyreactivity
21 | QVQLVESGGGLVQAGGSLRLSCAASGRTIIYNTMGWYRQAPGKEREFVAAINWSGGSTYYADSVKGRFTISRDNAKNTVYLQMNSLKPEDTAVYYCNAEAGYYRPLIYDYWGQGTQVTVSS | low polyreactivity
22 | QVQLVESGGGLVQAGGSLRLAVLPPDLPSTLNDMGWYRQAPGKERELVAAITRGGSTNYADSVKGRFTLSRDNAKNTVYLQMNSLKPEDTAVYYCAAPYAGWRDGGDYWGQGTQVTVSS | low polyreactivity

Row | Sequence | polyreactivity (PSR sort gate)
23 | QVQLVESGGGLVQAGGSLRLTCAASGRIFYLNAMGWYRQAPGKERELVAGLTNSTTGTYYADSVKGRFTISRDNAKNTVDLQMNSLKPEDTAVYYCNSDVAYEEPVETYDYWGQGTQVTVSS | low polyreactivity
24 | QVQLVESGGGLVQAGGSLRLSCAASGSIFEYYTMGWYIQAPGKERELVAGISWSGGSSYYADSVKGRFTISRDNAKNTVYLQMNSLKPEDTAVYYCAAGRTGWYWDSGSTYRYGYGYWGQGTQVTVSS | high polyreactivity
25 | QVQLVESGGGLVQAGGSLRLSCAASGFIFWSNARGWYRQAPGQDRELVAAINSSGGRTDYADSVKGRFTNSRDNAKNTDYLHMNSLKPEDTAVYYCAARLHSPPYRYDYWGQGTQVTVSS | high polyreactivity
26 | QVQLVESGGALVQAGGSLRLSCAASGFTFAFYAMGWYRQAPGKERELVAAISSRGGSTYYADSVKGRFTISRDNAKITVYLQMNSLKPEDTAVYYCAARGYYSVVEYYYWGQGTQVTVSS | high polyreactivity
27 | QCQLVVSGGGLVQAGGSLRISCSASGSTFGVYSMGWYRQAPGKERELFATINSGGSTNYADSVKGRFTISRDNAKNTVYLQMNSLKPEDTAVYYCASGPFWQDFYVYEYDYWGQGTQVTVSS | low polyreactivity
28 | QVQLVESGGGLVQAGGSLRLSCAASGLIFRWYAMGWYRQAPGKETELVAAINYSGGRTYYADSVKGRFTISRDNAKNTVYLQMNSLKPEDTAVYYCNAVAVPSTYDYWGQGTQVTVSS | low polyreactivity
29 | QVQLVESGGGLVQAGGSLRLSCAASGFTIIRYAMGWYRQAPGKERDLVAAITTSGSGTYYAHSVKGRFTISRDNAKNTVYLQMNSLKPEDTAVDYCATDYRYRSYSRGAHDYWGQGTQVTVSS | low polyreactivity
30 | QVQLVESGGGLVQAGGSLRLSCAASGFIFGQYAMGWYRQAPGKERELVAAISRSGGSTYYADSVKGRFTISRDNAKNTVYLQMNSLKPEDTAVYYCNRRDRGDSYRLDYWGQGTQVTVSS | high polyreactivity
31 | QVQLVESGGGLVQAGGSLRLSCAASGSIFWKNAMGWYRQAPGKERELVAAITRRGGSTYYADSVKGRFTISRDNAKNTVYLQMNSLKPEDTAVYYCAATGGAPYKIEWGQGTQVTVSS | low polyreactivity
32 | QVHLVESGGGLVQAGGSLRLSCAASGSIFINNTMGWYRQAPGKERELVAAISITGGSTYYADSVKGRFTISRDNAKNTVYLQMNSLKPEDTAVYYCAADPLQLYDYNYWGQGTQVTVSS | low polyreactivity
33 | QVQLVESGGCLVQAGGSLRLSCAASGSTFSWYTMGWYRQAPGKERELVAAITRGGTTYYADSVKGRFTISRDNAKNTVYLQMNSLKPEDSAVYYCAARYSRDVRMGYWGQGTQVTVSS | high polyreactivity
34 | QLQHVESGGGLVQAGGSLRLSCADSGRTFQYYAMGSYRQPPGKESELVAAINTSGGRTSYADSVKGRFTISRDNAKNTVYLQMNILKPEDTAVYYCAAKPFSYVYSSYYYWGQGTQVTVSS | high polyreactivity
35 | QVQLVESGGGLVQAGCSLRLSCAASGNTYYSYTMGWYRQAPGKERELVAAITGSGSTYYADSVKGRFTISRDNAKNTVYLQMNSLKPEDTAVYYCASRYVERHTDYYYWGQGTQVTVSS | low polyreactivity
36 | QVQLVESGGGLVQEGCSLRLTCAASGSIFYYYAMGWYRQAPRKERELVATITWNGAGTFYADSVKGRFTISRDNAKNTVYLQMNSLKPEDTAVYYCAASWYGESGYDYWGQGTQVTVSS | low polyreactivity
37 | QVQLVESGGGLVQAGGTLRLSSAASGFTFGNYAMGWYRQAPGKERELVAAISGRSGRTYYADSVKGRFTISRDNAKNTVYLQMISLKPEVTAVYYCAKKVFGWEYYYWGQGTQVTVSS | high polyreactivity
38 | QVQLVESGGGLVQAGGSLRLSCAASGSIFSINTMGWYRQAPGKERELVAAITRSGSGTYYADSVKGRFTISRDNAKNTVYLQMNSLKPEDTAVYYCAKPAGARLGYWGQGTQVTVSS | low polyreactivity
39 | QVQLVESGGGLVQAGGSLRLSCAASGSTFGYYTMGWYRQAPGKERELVAAITWLGGRTYYADSVKGRFTISRDNAKNTVYLQMNSLKPEDTAVYYCAARSTVLMDYWGQGTQVTVSS | high polyreactivity
40 | QVHLVESGGGLVQAGGSLRLTCAASGIIFRLYAMGWYRQAPGKEREFVARISKRGGSTYYADSVKGRFTISRDNSKNTVYLQMNSLKPEDTAVYYCAADAPLSYYHDYDYWGQGTQVTVSS | high polyreactivity
41 | QVQLVESGGGLVQAGGSLRLSCAASGFTFKRYAMGWYRQAPGKERELVAAISYSGGSTYYADSVKGRYTISRDNAKNTVYLQMNSLKPEVTAVYYCNTGRRYYSYRRDYWGQGTQVTVSS | high polyreactivity
42 | QVQLVESGGGLVQAGGSLRLSCAASGRIFVRNAMGWYRQAPGKERELVAAISWSSGGPYYADSVKGRFTISRDNAKNTVYLQMNSLKPDDTAVYYCNADPSRAGDYWGQGTQVTVSS | low polyreactivity
43 | QVQLVQSGGGLVQAGGSLRLSCAASGYIFNFNPMGWNRQAPGKERELVAVISDRDDTTYYADSVKGRFTISRDNAKNTVYLQMNSMKPEDTAVYYCAAVGDTYVDDQYDYWGQGTQVTVSS | low polyreactivity

Source: the nanobody polyreactivity screen of Harvey et al. (2022)
